Laboratory results as given in patent US20030148956A1 (PROCTER AND GAMBLE, published 2003).
Ends that are not written are not given here.

T1: corticotropin releasing factor 2 receptor
T1 sequence (Q13324 whole entry, species assumed, looked up): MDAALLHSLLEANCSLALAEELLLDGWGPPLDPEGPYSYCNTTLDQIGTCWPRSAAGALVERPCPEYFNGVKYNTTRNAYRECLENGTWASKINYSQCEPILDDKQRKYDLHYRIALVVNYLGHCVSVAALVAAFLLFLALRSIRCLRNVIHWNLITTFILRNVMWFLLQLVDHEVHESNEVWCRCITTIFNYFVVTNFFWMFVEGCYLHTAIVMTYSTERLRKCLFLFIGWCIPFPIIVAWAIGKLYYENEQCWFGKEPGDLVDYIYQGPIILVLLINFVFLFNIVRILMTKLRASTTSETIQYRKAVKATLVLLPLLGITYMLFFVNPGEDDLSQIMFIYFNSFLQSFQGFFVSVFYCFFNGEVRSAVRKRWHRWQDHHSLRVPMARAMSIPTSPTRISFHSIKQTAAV


Legend:
[1] = target: T1, corticotropin releasing factor 2 …; experiment: cell-based or functional assay
[2] = target: corticotropin releasing factor 1 receptor; experiment: cell-based or functional assay

Row | CRF2R EC50 [1] [µM] | CRF2R Emax % [1] [%] | CRF1R EC50 [2] [µM] | CRF1R Emax % [2] [%] | Binder
1 | 0.00556 | 100 | 0.099 | 100 | ZGPPISIDLPFQLLRILIEIEKQEKEKQQAANNALLLAT (C-terminal amide) [SEQ ID NO 358]
2 | 0.083 |  | 1 |  | IVLSLDVPIGLLQILLEQARARAAREQATTNARILARVM-NH2 [SEQ ID NO 356]
3 | 0.0129 | 97.4 | 1 | 85.7 | ZGPPISIDLPFQLLRKVIEIEKQEKEKQQATTNARLLDRV (C-terminal amide) [SEQ ID NO 351]
4 | 0.0251 | 100 | 1 | 20 | ZGPPISIDLPFQLLRKAIEIEKQEKEKQQATTNARLLDRV (C-terminal amide) [SEQ ID NO 363]
5 | 0.00475 | 89.9 | 0.23 | 92.2 | ZGPPISIDLPLYLLRKMIEIEKQEKEKQQATTNARILARV (C-terminal amide) [SEQ ID NO 353]
6 | 0.0138 | 100 | 1 | 44.2 | ZGPPISIDLPLQLLRKVIEIEKQEKEKQQAANNALLLATI (C-terminal amide) [SEQ ID NO 349]
7 | 0.00637 | 99 | 0.149 | 100 | ZGPPISIDLPFQLLRVLIEIEKQEKEKQQAANNALLLATI (C-terminal amide) [SEQ ID NO 361]
8 | 0.00603 | 95 | 0.018 | 100 | ZGPPISIDLSLELLRKMIEIEKQEKEKQQAANNRLLLDTI (C-terminal amide) [SEQ ID NO 355]
9 | 0.00439 | 100 | 0.386 | 100 | ZGPPISIDLPFQLLRKIIEIEKQEKEKQQAANNALLLATI (C-terminal amide) [SEQ ID NO 362]
10 | 0.00826 | 83.7 | 0.78 | 82.6 | ZGPPISIDLPFQLLRKVIEIEKQEKEKQQAANNALLLATI (C-terminal amide) [SEQ ID NO 352]
11 | 0.0132 | 100 | 1 | 27 | ZGPPISIDLPFQLLRKAIEIEKQEKEKQQAANNALLLATI (C-terminal amide) [SEQ ID NO 364]
12 | 0.00612 | 93 | 0.157 | 100 | ZGPPISIDLPFQLLRLLIEIEKQEKEKQQAANNALLLATI (C-terminal amide) [SEQ ID NO 360]
13 | 0.00644 | 100 | 0.331 | 100 | ZGPPISIDLPFQLLRKLIEIEKQEKEKQQAANNALLLATI (C-terminal amide) [SEQ ID NO 357]
14 | 0.0116 | 98.1 | 1 | 48 | ZGPPISIDLPFQLLRKVIEIEKQEKEKQQAANNALLLDTI (C-terminal amide) [SEQ ID NO 350]
15 | 0.0231 | 100 | 0.23 | 100 | ZGPPISIDLPFQLLREVIEIEKQEKEKQQAANNALLLATI (C-terminal amide) [SEQ ID NO 359]
16 | 0.00648 | 100 | 1 | 13.4 | Ac-IVLSLDVPIGLLQILLEQARARAAREQATTNARILARV-NH2 [SEQ ID NO 354]
